Assays:
[1] = biological target: T1, human 4-1BB on cells (human, UniProt Q07011 24-255); test: cell-based or functional assay
[2] = biological target: T2, human PD-L1 on cells (human, UniProt Q9NZQ7 19-290); test: flow cytometry, OVCAR3/hPD-L1 cells
T2 construct: whole, on cells; the cell line stands under assay; also called hPD-L1; OVCAR3/hPD-L1
Description: (§1) Binding was detected by using a labeled secondary antibody and measuring fluorescence on a flow cytometer.
(§2) Assay set up: OVCAR-3+/−PD-L1 cells were lifted with trypsin, washed and resuspended in stain buffer (2% FBS in PBS). OVCAR-3 and Jurkat/NFkB-Luc/h41BB cells were counted and added to wells at 200,000 cells/well. Cells, in wells of 96-well round bottom plates, were pelleted by centrifugation and resuspended in 150 ul stain buffer (PBS containing 2% FBS). Plates were once again centrifuged and subsequently 100 ul of stain buffer alone or stain buffer containing antibody, titrated from 200 nM to 12 pM in a 9-point 1:4 dose titration were added to cells. Cells and antibodies were incubated for 30 min on ice and then washed in stain buffer. Cells were resuspended in 2 μg/ml allophycocyanin (APC) conjugated goat-anti human secondary antibody. A secondary antibody alone control was included. Cells and secondary were incubated for 30 min on ice and then washed in stain buffer. […] After washing they were filtered and analyzed by flow cytometry. EC₅₀ values of the antibodies were determined from a 4 parameter logistic equation over a 9-point dose response curve (including secondary only control) using GraphPad Prism software.

[3] = biological target: T3, human 4-1BB expressed with a C-terminal myc-myc-hexahistidine tag (h4-1BB.mmH) (human); test: SPR Biacore, 25 C, antibody captured via anti-hFc, h4-1BB.mmH as analyte
T3 construct: also called hCD137 (4-1BB) mmH
T3 sequence (chain, as listed by the source limits assumed): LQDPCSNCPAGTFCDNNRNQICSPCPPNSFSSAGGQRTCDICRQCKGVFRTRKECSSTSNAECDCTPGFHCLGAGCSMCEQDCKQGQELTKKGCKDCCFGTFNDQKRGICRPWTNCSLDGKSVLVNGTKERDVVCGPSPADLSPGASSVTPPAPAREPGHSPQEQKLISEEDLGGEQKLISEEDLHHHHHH
Description: (§3) The CM5 Biacore sensor surface was derivatized by amine coupling with a monoclonal mouse anti-human Fc antibody. All Biacore binding studies were performed in a buffer composed of 0.01M HEPES pH 7.4, 0.15M NaCl, 3 mM EDTA, 0.05% v/v Surfactant P20 (HBS-EP running buffer). […] Antibody-reagent association was monitored for 5 minutes while dissociation in HBS-EP running buffer was monitored for 10 minutes. At the end of each cycle, the antibody capture surface was regenerated using a 10 sec injection of 20 mM phosphoric acid. All binding kinetics experiments were performed at 25° C.
(§4) Data analysis: The specific SPR-Biacore sensorgrams were obtained by a double referencing procedure. The double referencing was performed by first subtracting the signal of each injection over a reference surface (anti-hFc or anti-mFc) from the signal over the experimental surface (anti-hFc-captured anti-PD-L1×4-1BB antibodies) thereby removing contributions from refractive index changes. In addition, running buffer injections were performed to allow subtraction of the signal changes resulting from the dissociation of captured antibodies or antigens from the coupled anti-hFc or anti-mFc surface. Kinetic association (kₐ) and dissociation (kd) rate constants were determined by fitting the real-time sensorgrams to a 1:1 binding model using Scrubber v2.0c curve fitting software. Binding dissociation equilibrium constants (KD) and dissociative half-lives (t½) were calculated from the kinetic rate constants as: […]

[4] = biological target: human PD-L1 expressed with a C-terminal myc-myc-hexahistidine tag (hPD-L1.mmH) (human); test: SPR Biacore, 25 C, antibody captured via anti-hFc, hPD-L1.mmH as analyte
Sequence of human PD-L1 expressed with a C-terminal myc-myc-hexahistidine tag (hPD-L1.mmH) (human) (chain, as listed by the source limits assumed): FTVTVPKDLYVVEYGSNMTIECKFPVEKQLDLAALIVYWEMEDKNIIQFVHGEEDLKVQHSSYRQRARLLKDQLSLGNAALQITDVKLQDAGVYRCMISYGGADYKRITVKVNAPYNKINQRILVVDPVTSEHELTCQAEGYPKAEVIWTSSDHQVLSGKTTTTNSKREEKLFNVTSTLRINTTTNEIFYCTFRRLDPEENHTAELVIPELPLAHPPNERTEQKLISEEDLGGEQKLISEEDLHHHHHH
Description: as §3, with “a 12” for “a 10”
as §4

[5] = biological target: T2, human PD-L1 on cells; test: cell-based or functional assay
[6] = biological target: T3, human 4-1BB expressed with a C-terminal …; test: blocking ELISA, 0.25 nM h4-1BB-mmh binding to coated 6His-Flag-h4-1BBL
Description: The 4-1BB blocking assay was performed similarly to the PD-L1 blocking assay. 6His-Flag-h4-1BBL protein ([…] in PBS) was coated onto a 96-well microtiter plate overnight at 4 °C. […] The plates were developed using TMB substrate solution (BD Biosciences) and the absorbance at 450 nm was measured on a SpectraMax I3x plate reader.
(§5) Binding data were analyzed using a sigmoidal (four-parameter logistic) dose-response model with GraphPad Prism™ software. […] The percent blocking of tested antibodies at the highest tested concentration of 100 nM was calculated based on the formula shown below: […]

[7] = biological target: T4, hPD-L1-mFc (human; mouse, UniProt Q9NZQ7 19-239); test: blocking ELISA, 0.7 nM hPD-L1-mFc binding to coated hPD1-hFc
T4 construct: range 19-239; also called human PD-L1 extracellular domain with mouse IgG2a Fc; not shown: Fc portion of mouse IgG2a at the C-terminus, amino acids E98-K330
T4 sequence (Q9NZQ7 19-239 limits assumed): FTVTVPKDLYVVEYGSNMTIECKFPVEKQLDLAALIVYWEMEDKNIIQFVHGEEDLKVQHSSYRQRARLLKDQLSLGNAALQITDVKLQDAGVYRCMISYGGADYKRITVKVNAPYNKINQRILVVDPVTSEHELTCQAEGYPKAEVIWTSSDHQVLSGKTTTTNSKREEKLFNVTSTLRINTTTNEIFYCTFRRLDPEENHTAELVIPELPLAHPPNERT
Description: In the PD-L1 blocking assay, hPD1-hFc protein ([…] in PBS) was coated onto a 96-well microtiter plate overnight at 4° C. […] The plates were then developed using TMB substrate solution (BD Biosciences) according to the manufacturer's recommended procedure and the absorbance at 450 nm was measured on a SpectraMax I3x plate reader.
as §5

[8] = biological target: T2, human PD-L1 on cells; test: flow cytometry, Jurkat/NFkB-Luc/h41BB cells (potential low endogenous PD-L1)
Description: as §1, §2

[9] = biological target: T2, human PD-L1 on cells; test: flow cytometry, OVCAR3 cells (low endogenous PD-L1)
Description: as §1, §2

[10] = biological target: T1, human 4-1BB on cells; test: cell-based or functional assay; remark: listed apart in the source
[11] = biological target: T1, human 4-1BB on cells; test: flow cytometry, Jurkat/NFkB-Luc/h41BB cells
Description: as §1
Assay set up: OVCAR-3+/−PD-L1 cells were lifted with trypsin, washed and resuspended in stain buffer (2% FBS in PBS). OVCAR-3 and Jurkat/NFkB-Luc/h41BB cells were counted and added to wells at 200,000 cells/well. Cells, in wells of 96-well round bottom plates, were pelleted by centrifugation and resuspended in 150 ul stain buffer (PBS containing 2% FBS). Plates were once again centrifuged and subsequently 100 ul of stain buffer alone or stain buffer containing antibody, titrated from 200 nM to 12 pM in a 9-point 1:4 dose titration were added to cells. Cells and antibodies were incubated for 30 min on ice and then washed in stain buffer. Cells were resuspended in 2 μg/ml allophycocyanin (APC) conjugated goat-anti human secondary antibody. A secondary antibody alone control was included. Cells and secondary were incubated for 30 min on ice and then washed in stain buffer. After a subsequent wash with PBS (containing no FBS), cells were resuspended in viability dye (reconstituted in DMSO according to the manufacturer's protocol and diluted 1:1000 in PBS) and incubated for 20 min on ice. They were then washed with stain buffer and resuspended in 2% PFA for 30 min at 4 C. After washing they were filtered and analyzed by flow cytometry. EC₅₀ values of the antibodies were determined from a 4 parameter logistic equation over a 9-point dose response curve (including secondary only control) using GraphPad Prism software.

T1 sequence (Q07011 24-255): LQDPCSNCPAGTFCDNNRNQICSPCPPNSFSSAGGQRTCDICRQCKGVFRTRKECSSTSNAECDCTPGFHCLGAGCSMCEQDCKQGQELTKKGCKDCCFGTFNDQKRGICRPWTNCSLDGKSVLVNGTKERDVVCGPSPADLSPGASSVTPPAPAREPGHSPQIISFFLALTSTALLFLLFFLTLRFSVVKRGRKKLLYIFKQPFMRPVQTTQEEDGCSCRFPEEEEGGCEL
T2 sequence (Q9NZQ7 19-290): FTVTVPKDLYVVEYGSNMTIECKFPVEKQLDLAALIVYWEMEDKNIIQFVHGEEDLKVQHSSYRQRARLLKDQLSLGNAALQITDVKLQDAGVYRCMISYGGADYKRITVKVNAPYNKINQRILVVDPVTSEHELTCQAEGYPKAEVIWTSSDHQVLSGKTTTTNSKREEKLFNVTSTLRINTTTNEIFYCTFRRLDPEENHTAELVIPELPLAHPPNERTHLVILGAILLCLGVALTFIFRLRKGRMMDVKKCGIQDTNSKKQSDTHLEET

B1: mAb9364 (antibody, V domains shown)
VH: EVQLVESGGGLVQPGRSLRLSCAASGFTFDDYALHWVRQAPGKGLEWVSGISWTGGTIDYADSVKGRFTISRDNAKNSLYLQMSSLRTEDTAIYYCTRDIRGNWKYGGWFDPWGQGTLVTVSS
VL: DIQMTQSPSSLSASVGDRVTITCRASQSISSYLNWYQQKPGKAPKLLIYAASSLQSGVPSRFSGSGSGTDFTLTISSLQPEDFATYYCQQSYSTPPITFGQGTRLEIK
notes: bivalent parental anti-PD-L1 antibody; captured by anti-human Fc); also called 9364P3; parental bivalent PD-L1 antibody
With B1 the “IL2 release MAX, human CD3+ T cells + HEK293/hCD20/hPSMA + CD20xCD3” value [1] was 13.4 pg/mL, the “IL2 release MAX, human CD3+ T cells + HEK293/hCD20/hPSMA, no CD20xCD3” value [1] was 3.5 pg/mL and the “IL2 release MAX, human CD3+ T cells + HEK293/hCD20/hPSMA/hPD-L1 + CD20xCD3” value [1] was 9.3 pg/mL. The “IL2 release MAX, human CD3+ T cells + HEK293/hCD20/hPSMA/hPD-L1, no CD20xCD3” value [1] was 3.5 pg/mL, the EC50 [2] was 0.86 nM and the “Fold change (max MFI over secondary antibody alone)” value (“Fold change” for short) [2] was 2200 fold. For the same binder, the “270 nM h4-1BB-mmH Bind (RU)” value [3] was 2 RU, the binding result [3] was “no binding (tested: 270 nM)” and the Kd [4] was 0.13 nM. The koff [4] was 7.42e-05 s⁻¹, the kon [4] was 571000 M⁻¹ s⁻¹ and the t½ [4] was 2.59 h. For the same binder, the “AP-1 luciferase EC50, Jurkat/AP1-luc/hPD1 + WSU-DLCL2/hPD-L1 + CD20xCD3” value [5] was 0.00651 nM, the “% Blocking at 100 nM mAb” value [6] was 0% and the IC50 [7] was 0.52 nM. The “Fold change” value [8] was 9.5 fold, the EC50 [9] was 0.0084 nM and the “Fold change” value [9] was 4.4 fold. The “NFkB-luciferase MAX (RLU), Jurkat/NFkB-Luc/h41BB + HEK293/hCD20/hPSMA” value [10] was 60900 RLU and the “NFkB-luciferase MAX (RLU), Jurkat/NFkB-Luc/h41BB + HEK293/hCD20/hPSMA/hPD-L1” value [10] was 70900 RLU.

B2: REGN6190 (bispecific antibody, human IgG4 S228P, kappa)
heavy 1: EVQLVESGGGLVQPGRSLRLSCAASGFTFDDYALHWVRQAPGKGLEWVSGISWTGGTIDYADSVKGRFTISRDNAKNSLYLQMSSLRTEDTAIYYCTRDIRGNWKYGGWFDPWGQGTLVTVSSASTKGPSVFPLAPCSRSTSESTAALGCLVKDYFPEPVTVSWNSGALTSGVHTFPAVLQSSGLYSLSSVVTVPSSSLGTKTYTCNVDHKPSNTKVDKRVESKYGPPCPPCPAPPVAGPSVFLFPPKPKDTLMISRTPEVTCVVVDVSQEDPEVQFNWYVDGVEVHNAKTKPREEQFNSTYRVVSVLTVLHQDWLNGKEYKCKVSNKGLPSSIEKTISKAKGQPREPQVYTLPPSQEEMTKNQVSLTCLVKGFYPSDIAVEWESNGQPENNYKTTPPVLDSDGSFFLYSRLTVDKSRWQEGNVFSCSVMHEALHNHYTQKSLSLSLGK
heavy 2: EVQLVESGGGLVQPGGSLRLSCEASGFTFSSYEMNWVRQAPGKGLEWISHISSSGSSIYYADSVQGRFTISRDKAKNSLYLQMNSLRAEDTAVYYCTREGFEYGSSSGLKYYYYGLDVWGQGTTVTVSSASTKGPSVFPLAPCSRSTSESTAALGCLVKDYFPEPVTVSWNSGALTSGVHTFPAVLQSSGLYSLSSVVTVPSSSLGTKTYTCNVDHKPSNTKVDKRVESKYGPPCPPCPAPPVAGPSVFLFPPKPKDTLMISRTPEVTCVVVDVSQEDPEVQFNWYVDGVEVHNAKTKPREEQFNSTYRVVSVLTVLHQDWLNGKEYKCKVSNKGLPSSIEKTISKAKGQPREPQVYTLPPSQEEMTKNQVSLTCLVKGFYPSDIAVEWESNGQPENNYKTTPPVLDSDGSFFLYSRLTVDKSRWQEGNVFSCSVMHEALHNRFTQKSLSLSPGK
light: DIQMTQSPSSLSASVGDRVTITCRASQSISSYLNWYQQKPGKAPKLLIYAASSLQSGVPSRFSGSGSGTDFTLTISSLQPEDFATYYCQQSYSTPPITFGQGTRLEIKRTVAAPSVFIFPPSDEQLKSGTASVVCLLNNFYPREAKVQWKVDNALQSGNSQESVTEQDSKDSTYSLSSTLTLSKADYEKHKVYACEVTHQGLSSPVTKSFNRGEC
notes: common light chain 1-39; also called R6190; PD-L1x4-1BB REGN6190
For B2, the “IL2 release EC50, human CD3+ T cells + HEK293/hCD20/hPSMA/hPD-L1 + CD20xCD3” value [1] was 0.663 nM, the “IL2 release MAX, human CD3+ T cells + HEK293/hCD20/hPSMA + CD20xCD3” value [1] was 9.6 pg/mL and the “IL2 release MAX, human CD3+ T cells + HEK293/hCD20/hPSMA, no CD20xCD3” value [1] was 8.9 pg/mL. The “IL2 release MAX, human CD3+ T cells + HEK293/hCD20/hPSMA/hPD-L1 + CD20xCD3” value [1] was 52.5 pg/mL, the “IL2 release MAX, human CD3+ T cells + HEK293/hCD20/hPSMA/hPD-L1, no CD20xCD3” value [1] was 8.9 pg/mL and the “270 nM h4-1BB-mmH Bind (RU)” value [3] was 30.7 RU. It also gave a Kd [3] of 30.3 nM, a koff [3] of 0.021 s⁻¹ and a kon [3] of 692000 M⁻¹ s⁻¹. The t½ [3] was 30 s, the “% Blocking at 100 nM mAb” value [6] was 85% and the “Fold change” value [11] was 36.2 fold. For the same binder, the “Max [gMFI]” value [11] was 82000 gMFI, the “NFkB-luciferase EC50, Jurkat/NFkB-Luc/h41BB + HEK293/hCD20/hPSMA/hPD-L1” value [10] was 4.48 nM and the “NFkB-luciferase MAX (RLU), Jurkat/NFkB-Luc/h41BB + HEK293/hCD20/hPSMA” value [10] was 120000 RLU. The “NFkB-luciferase MAX (RLU), Jurkat/NFkB-Luc/h41BB + HEK293/hCD20/hPSMA/hPD-L1” value [10] was 973000 RLU.
